Reference: publication PMC7858594, “Specific inhibition of FGF5-induced cell proliferation by RNA aptamers”

T1: FGF5 (human, UniProt P12034 21-268)
T1 sequence: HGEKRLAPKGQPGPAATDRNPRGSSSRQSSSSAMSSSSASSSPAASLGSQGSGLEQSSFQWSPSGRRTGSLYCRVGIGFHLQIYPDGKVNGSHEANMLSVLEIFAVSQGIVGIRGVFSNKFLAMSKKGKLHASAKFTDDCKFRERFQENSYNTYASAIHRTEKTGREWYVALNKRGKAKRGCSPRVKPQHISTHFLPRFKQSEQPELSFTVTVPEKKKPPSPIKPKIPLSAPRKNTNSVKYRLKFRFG

T2: FGF6 (human, UniProt P10767 38-208)
T2 sequence: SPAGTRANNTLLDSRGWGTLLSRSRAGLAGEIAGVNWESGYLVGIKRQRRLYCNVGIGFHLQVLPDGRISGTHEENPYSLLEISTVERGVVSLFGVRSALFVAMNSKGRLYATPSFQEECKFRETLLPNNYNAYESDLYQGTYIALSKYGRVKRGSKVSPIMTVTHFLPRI

T3: FGF4 (human, UniProt P08620 31-206)
T3 sequence: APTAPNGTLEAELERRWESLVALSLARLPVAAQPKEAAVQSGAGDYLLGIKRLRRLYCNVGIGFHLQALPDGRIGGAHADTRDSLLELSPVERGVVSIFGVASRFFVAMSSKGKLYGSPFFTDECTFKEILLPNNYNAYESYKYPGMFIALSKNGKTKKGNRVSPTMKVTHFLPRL

B1: F5f1_56 (structured_RNA)
RNA: GGGCGACCUCUCCGUACUGACCUACAGAGCGACAUACUAGUGUAUCCAGAUCGCCC
modifications: 2'-fluoro pyrimidines (all C and U)
B2: F5f1 (structured_RNA)
RNA: GGGCUAGCUGAUCGUACCUCUCCGUACUGACCUACAGAGCGACAUACUAGUGUAUCCAGAUACUAACAGCUAACACCC
modifications: 2'-fluoro pyrimidines (all C and U)
B3: F5f3 (structured_RNA)
RNA: GGGCUAGCUGAUCGUACCUAGCGUGAAUCCAACACGCUUGACAUGCAAACUGCAUCCAGAUACUAACAGCUAACACCC
modifications: 2'-fluoro pyrimidines (all C and U)
B4: F5f3_56 (structured_RNA)
RNA: GGGCGACCUAGCGUGAAUCCAACACGCUUGACAUACAAACUGCAUCCAGAUCGCCC
modifications: 2'-fluoro pyrimidines (all C and U)

Experiments:
[1] = molecular target: T1, FGF5; experiment: SPR; 4 eq low-MW heparin; SPR (BIAcore X): 20 mM Tris-HCl pH 7.4, 200 mM NaCl, 5 mM MgCl2, 5 mM CaCl2, 0.05% Tween20, 4 eq low-MW heparin; temperature not stated; conditions: protein: commercial; label: none; multi-branched loop (predicted)
[2] = molecular target: FGF1 (human, UniProt P05230 16-155); experiment: SPR; 100 nM protein, 4 eq low-MW heparin; SPR (BIAcore X): 20 mM Tris-HCl pH 7.4, 200 mM NaCl, 5 mM MgCl2, 5 mM CaCl2, 0.05% Tween20, 4 eq low-MW heparin; temperature not stated; conditions: protein: commercial; label: none; multi-branched loop (predicted)
Chain of FGF1 (P05230 16-155): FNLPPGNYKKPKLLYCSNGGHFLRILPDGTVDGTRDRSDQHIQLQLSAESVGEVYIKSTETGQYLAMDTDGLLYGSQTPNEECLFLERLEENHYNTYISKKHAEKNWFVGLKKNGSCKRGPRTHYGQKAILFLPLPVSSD

[3] = molecular target: FGF2 (human, UniProt P09038 143-288); experiment: as above; conditions: protein: commercial; label: none; multi-branched loop (predicted)
Chain of FGF2 (P09038 143-288): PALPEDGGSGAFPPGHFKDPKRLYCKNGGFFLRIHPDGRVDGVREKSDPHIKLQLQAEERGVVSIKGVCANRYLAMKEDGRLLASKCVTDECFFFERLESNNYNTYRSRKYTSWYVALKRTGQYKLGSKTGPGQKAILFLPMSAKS

[4] = molecular target: FGFR1alpha (IIIc)-Fc chimera (human, UniProt P11362 22-376); experiment: as above; conditions: protein: commercial; tags: Fc; chain copies: 2; label: none; multi-branched loop (predicted)
Chain of FGFR1alpha (IIIc)-Fc chimera (P11362 22-376, change not shown): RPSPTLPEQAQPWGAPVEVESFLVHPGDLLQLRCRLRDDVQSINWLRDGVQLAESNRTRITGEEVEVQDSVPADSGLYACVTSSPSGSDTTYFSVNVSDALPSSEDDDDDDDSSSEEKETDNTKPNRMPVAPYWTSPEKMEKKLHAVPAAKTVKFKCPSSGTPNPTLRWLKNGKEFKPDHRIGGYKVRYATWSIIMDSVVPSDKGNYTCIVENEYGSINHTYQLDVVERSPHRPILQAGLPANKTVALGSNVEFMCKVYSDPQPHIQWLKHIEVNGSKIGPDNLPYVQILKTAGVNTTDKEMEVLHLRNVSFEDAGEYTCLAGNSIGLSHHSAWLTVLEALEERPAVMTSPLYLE

[5] = molecular target: T2, FGF6; experiment: as above; conditions: protein: commercial; label: none; multi-branched loop (predicted)
[6] = molecular target: T3, FGF4; experiment: as above; conditions: protein: commercial; label: none; multi-branched loop (predicted)

| Binder | Kd [1] | binding result [2] | binding result [3] | binding result [4] | binding result [5] | binding result [6] |
| --- | --- | --- | --- | --- | --- | --- |
| B1 | 0.118 ± 0.003 nM | – | – | – | – | – |
| B2 | 0.7 ± 0.2 nM | no binding | no binding | no binding | no binding | no binding |
| B3 | 0.57 ± 0.02 nM | – | – | – | – | – |
| B4 | 0.92 ± 0.04 nM | – | – | – | – | – |
